Test results: patent US20210206850A1 (ACCURUS BIOSCIENCES, published 2021)
Several values for one entry are separate records, joined by “and”; a condition that tells them apart may be missing. Equal entries are not always repeated. Values belong to the binder of their own block, whether it stands above or below them.

How the values were obtained:
[1] = biological target: T1, human CD47ECD His tagged protein (human, UniProt Q08722 19-139, limits assumed); test: SPR (Biacore 3000); antibody captured on anti-human Fc chip, monovalent HuCD47ECD 8xHis injected
T1 construct: extracellular domain; also called HuCD47ECD 8xHis; monovalent CD47ECD His tagged protein
T1 sequence (Q08722 19-139 limits assumed): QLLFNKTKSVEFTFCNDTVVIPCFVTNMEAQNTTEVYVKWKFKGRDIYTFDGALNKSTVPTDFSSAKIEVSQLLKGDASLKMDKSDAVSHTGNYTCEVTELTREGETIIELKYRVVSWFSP
Description: (§1) The binding affinities of anti-human CD47 mouse/human chimeric antibodies to human CD47 protein were determined with BIACORE™ using a capture method. The anti-human CD47 mouse/human chimeric antibodies were captured using anti-human Fc antibody coated on a CMS chip. Serial dilutions of human CD47ECD mouse Fc protein starting from 400 nM were injected over captured antibody for 1 mins at a flow rate of […]. Alternatively, serial dilutions of human CD47ECD His tagged protein starting from 800 nM were injected over captured antibody for 1 min at a flow rate of […]. The antigens were allowed to dissociate for 900s. All the experiments were carried out on a Biacore 3000. Data analysis was carried out using Biacore 3000 evaluation software.

[2] = biological target: human CD47 (full length) expressed on cells (human) (UniProt Q08722); test: FACS ligand blocking on CD47-CHO cells; blocked ligand FITC human SIRPa huFc at 4 ug/ml
Chain of human CD47 (full length) expressed on cells (human) (Q08722 19-323): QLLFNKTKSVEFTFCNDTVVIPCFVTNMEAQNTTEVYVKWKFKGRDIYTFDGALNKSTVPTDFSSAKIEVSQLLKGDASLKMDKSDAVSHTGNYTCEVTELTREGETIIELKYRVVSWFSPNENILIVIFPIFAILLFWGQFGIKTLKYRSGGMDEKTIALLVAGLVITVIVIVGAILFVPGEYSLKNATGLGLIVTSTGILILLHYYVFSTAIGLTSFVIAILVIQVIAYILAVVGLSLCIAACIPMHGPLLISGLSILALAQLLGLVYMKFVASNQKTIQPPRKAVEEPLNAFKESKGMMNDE

[3] = biological target: T2, human CD47ECD mouse Fc protein (human, UniProt Q08722 19-139, limits assumed); test: SPR (Biacore 3000); antibody captured on anti-human Fc chip, bivalent HuCD47ECD muFc injected
T2 construct: extracellular domain; also called HuCD47ECD muFc; bivalent CD47ECD muFc protein; not shown: mouse Fc
T2 sequence (Q08722 19-139 limits assumed): as the sequence (Q08722 19-139 limits assumed) above
Description: as §1

[4] = biological target: T1, human CD47ECD His tagged protein; test: SPR (Biacore 3000); antibody captured on anti-human Fc chip, monovalent HuCD47ECD 8xHis injected; column Affinity (nM)
Description: as §1

[5] = biological target: T2, human CD47ECD mouse Fc protein; test: SPR (Biacore 3000); antibody captured on anti-human Fc chip, bivalent HuCD47ECD muFc injected; column Affinity (nM)
Description: as §1

[6] = biological target: T1, human CD47ECD His tagged protein; test: ELISA ligand blocking, plate coated with human CD47 ECD His tagged protein at 1 ug/ml; blocked ligand human SIRPaECD huFc at 1 ug/ml, anti-human IgG-HRP
Description: (§2) To evaluate the blocking ability of anti-human CD47 mouse mAb on recombinant human CD47 binding to its ligand SIRPα, an ELISA based ligand blocking assay was employed. Briefly, microtiter plates were coated with human CD47ECD His tagged protein at 1 μg/ml in PBS, 100 μl well at 4° C. overnight, then blocked with 100 μl/well of 2% BSA. […] The plates were washed with PBS/Tween and then incubated with anti-human IgG-HRP for 1 hour at 37° C. After washing, the plates were developed with TMB substrate and analyzed by spectrophotometer at OD 450 nm.

[7] = biological target: T3, His tagged mouse CD47 protein (mouse, UniProt Q61735 19-140, limits assumed); test: ELISA, plate coated with His tagged mouse CD47 at 2 ug/ml, goat anti-mouse IgG-HRP, OD450
T3 construct: Bought protein
T3 sequence (looked up): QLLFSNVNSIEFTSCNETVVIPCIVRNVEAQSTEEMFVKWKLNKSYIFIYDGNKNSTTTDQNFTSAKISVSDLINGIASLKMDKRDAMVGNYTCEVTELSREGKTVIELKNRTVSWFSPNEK
Description: To evaluate the binding cross-reactivity of anti-human CD47 antibodies to cynomolgus and mouse CD47, an ELISA based binding assay was used. Briefly, microtiter plates were coated with His tagged cynomolgus monkey CD47 or His tagged mouse CD47 protein (purchase from Acro Biosystem). Both proteins were coated at 2 μg/ml in PBS, 100 μl/well at 4° C. overnight. The plates were then blocked with 100 μl/well of 2% BSA. Ten-fold dilutions of mouse anti-human CD47 hybridoma antibodies were added to each well starting at 70 ug/ml and incubated for 1-2 hours at RT. The plates were washed with PBS/Tween and then incubate with goat-anti-mouse IgG antibody conjugated with Horse Radish Peroxidase (HRP) for 1 hour at RT. After washing, the plates were developed with TMB substrate and analyzed by spectrophotometer at OD 450 nm.

[8] = biological target: T1, human CD47ECD His tagged protein; test: ELISA competition; plate-bound human CD47ECD His, competitor ligand SIRPα huFc 1 ug/ml
Description: as §2

[9] = biological target: T4, human CD47ECD human Fc protein (human, UniProt Q08722 19-139, limits assumed); test: ELISA, plate coated with human CD47ECD huFc at 1 ug/ml, goat anti-mouse IgG-HRP, OD450
T4 construct: extracellular domain; also called human CD47ECD huFc; human CD47huFc; not shown: human Fc
T4 sequence (Q08722 19-139 limits assumed): as the sequence (Q08722 19-139 limits assumed) above
Text: After washing, the plates were developed with TMB substrate and analyzed by spectrophotometer at OD 450 nm.

Kd [1]: 0.798 nM
koff [1]: 0.000703 s⁻¹
kon [1]: 881000 M⁻¹ s⁻¹
IC50 [2]: 8.6 µg/mL
Kd [3]: 0.0479 nM
koff [3]: 2.25e-05 s⁻¹
kon [3]: 469000 M⁻¹ s⁻¹
Kd [4]: 0.798 nM
Kd [5]: 0.0479 nM
B1: AB6.12, a humanized version of anti-CD47 antibody 2A1 from Celgene (antibody, from another filing, V domains shown)
VH: QMQLVQSGAEVKKTGSSVKVSCKASGFNIKDYYLHWVRQAPGQALEWMGWIDPDQGDTEYAQKFQDRVTITRDRSMSTAYMELSSLRSEDTAMYYCNAAYGSSSYPMDYWGQGTTVTVSS
VL: NIQMTQSPSAMSASVGDRVTITCKASQDIHRYLSWFQQKPGKVPKHLIYRANRLVSGVPSRFSGSGSGTEFTLTISSLQPEDFATYYCLQYDEFPYTFGGGTKVEIKR

IC50 [6]: 0.25 µg/mL and 1.69 nM
binding result [7]: no binding (tested: 70 ug/ml)
B2: D125S3 (antibody, V domains shown)
VH: EVQLVESGGDLVKPGGSLNLSCAASGFTFSDYGMSWVRQTPDMRLEWVATISKYGTYTSYPDSVKGRFTISRSNAKNTLYLQMSSLKSADTALYYCARRFFGNYNYWYFDVWGAGTTVTVSS
VL: DIVLTQSPASLAVSLGQRATFSCRASESVDEFGISYIHWYKKSPGQPPKLLIYRASTLESGISARFSGSGSGTDFTLTINPVETDDVATYYCQQSNQDPLTFGAGTKLELK
notes: Mouse hybridoma form; the mouse/human chimeric form with the same V regions is m18; also called D125S3 mouse anti-human CD47 hybridoma antibody

IC50 [8]: 1 nM
IC50 [6]: 0.15 µg/mL and 1.02 nM
B3: D28S1 mouse anti-human CD47 hybridoma antibody (antibody, V domains shown)
VH: EVQLVESGGDLVKPGGSLKLSCAASGFTFTSYGMSWVRQTPDKRLEWVATINTGGSYTYYPDSVKGRFTISRDNAKNTLYLQMSSLKSEDTAMYYCARHTIKSLMDYWGQGTSVTVSS
VL: ETTVTQSPASLSMAIGEKVTIRCITSTDIDDDMNWYQQKPGEPPKLLISEGNTLRPGVPSRFSSSGYGTDFVFIIENMFSEDVADYYCLQSDNLPYTFGSGTKLEIK
notes: Mouse hybridoma IgG

IC50 [6]: 0.27 µg/mL and 1.77 nM
binding result [7]: no binding (tested: 70 ug/ml)
B4: D8S1 (antibody, V domains shown)
VH: EVQLQQSVAELVRPGASVKLSCTVSGFNIKNTYIYWVKQRPEQGLEWIGRIDPANGNTKDAPKFQGKATMTADTSSNTAYLQLSSLTSEDTAIYYCARGYGSGFAYWGQGTLVTVSA
VL: DIQMTQTTSSLSASLGDRVTISCRASQDISNHLNWYQQKPDGIVKLLIYYTSRLHSGVPSRFSGSGSGTDYSLTISNLEQEDIATYFCQQGSTLPFTFGSGTKLEIK
notes: Mouse hybridoma form; the mouse/human chimeric form with the same V regions is m13; also called D8S1 mouse anti-human CD47 hybridoma antibody

IC50 [6]: 1.94 µg/mL and 12.9 nM
binding result [7]: no binding (tested: 70 ug/ml)
B5: D96S1 mouse anti-human CD47 hybridoma antibody (antibody, V domains shown)
VH: EVQLQQSGAELVKPGASVKLSCTASGFNIKDTYIHWVKQRPEQGLEWIGRIDPANGNIKSDPKFQGKATVTADTSSNTAYLQLSSLTSEDTAVYYCARSYGSSFASWGQGTLVTVSP
VL: DIQMTQTTSSLSASLGDRVTISCRASQDISNHLNWYQQKPDGAVKLLIYYTSRLHSGVPSRFSGSGSGTDYSLTISNLEQEDIATYFCQQGSTFPYTFGGGTKLEIK
notes: Mouse hybridoma IgG

IC50 [6]: 0.16 µg/mL and 1.06 nM
binding result [7]: no binding (tested: 70 ug/ml)
B6: D41S2 (antibody, V domains shown)
VH: EVQLQQSVAELVRPGASVKLSCTPSGFNIKNTYIYWVRQRPEQGLEWIGRIDPANGNTKDAPKFQGKATMTADTSSNTAYLQLSSLTSEDTAIYYCARGYGSGFAYWGQGTLVTVSA
VL: DIQMTQTTSSLSASLGDRVTISCRASQDISNHLNWYQQKPDGTVKLLIYYTSRLHSGVPSRFSGSGSGTDYSLTISNLEQEDIATYFCQQGSTLPFTFGSGTKLEIK
notes: Mouse hybridoma form; the mouse/human chimeric form with the same V regions is m16; also called D41S2 mouse anti-human CD47 hybridoma antibody

IC50 [8]: 0.59 nM
IC50 [6]: 0.09 µg/mL
binding result [7]: binds
EC50 (read off the curve) [9]: ~0.02 µg/mL
B7: D36S4 mouse anti-human CD47 hybridoma antibody (antibody, V domains shown)
VH: EVKLEESGGGLVQPGGSMKLSCVASGFTFSRYWMNWVRQSPDKGLEWVAQIRLKSDNYETHYAESVKGRFTISRDDSKSSVYLQMNNLRAEDTGIYYCIEEGGYYVPFAYWGQGTLVTVSA
VL: DIVVSQSPSSLAVSAGEKVTMSCKSSQSLFKSRTRKNYLAWYQQRPGQSPKLLIYWASIRESGVPDRFTGSGSGTEFTLTISSVQAEDLAVYYCKQSYYLLTFGAGTKLELK
notes: Mouse hybridoma IgG
